Assay results from patent publication US20230416313A1 (NAVIGO PROTEINS, published 2023).

Biological target: T1, recombinant human complement factor H (CFH), isolated from moss (human, UniProt P08603 19-1231)
T1 construct: also called moss-FH; recombinant CFH
Experiment: affinity chromatography, ligand on Praesto Epoxy 85, CFH supernatant bound in PBS pH 7.3, eluted at pH 3.5
Description: Coupling parameter. Proteins were purified to homogeneity and coupled to resin for AIC experiments. […] Variants were successfully coupled to epoxy-activated Praesto 85 resin.
AIC experiments. Capturing and Elution. For initial column performance tests, resins were packed into superformance 50-5 column housing. Phosphate buffered saline pH 7.3 (PBS) was used to equilibrate the column, followed by applying of 10 mL of recombinant CFH expression supernatant (titer: 0.47 mg/mL) at 6 min residence time. Resin was then washed with PBS for 15 column volumes. Elution was performed at pH 3.5 using 100 mM Citric acid buffer followed by stripping of residual bound CFH at pH 2.0. Elution at pH 3.5 and pH 2.0 was calculated by UV 280 nm absorption.

T1 sequence (P08603 19-1231 limits assumed): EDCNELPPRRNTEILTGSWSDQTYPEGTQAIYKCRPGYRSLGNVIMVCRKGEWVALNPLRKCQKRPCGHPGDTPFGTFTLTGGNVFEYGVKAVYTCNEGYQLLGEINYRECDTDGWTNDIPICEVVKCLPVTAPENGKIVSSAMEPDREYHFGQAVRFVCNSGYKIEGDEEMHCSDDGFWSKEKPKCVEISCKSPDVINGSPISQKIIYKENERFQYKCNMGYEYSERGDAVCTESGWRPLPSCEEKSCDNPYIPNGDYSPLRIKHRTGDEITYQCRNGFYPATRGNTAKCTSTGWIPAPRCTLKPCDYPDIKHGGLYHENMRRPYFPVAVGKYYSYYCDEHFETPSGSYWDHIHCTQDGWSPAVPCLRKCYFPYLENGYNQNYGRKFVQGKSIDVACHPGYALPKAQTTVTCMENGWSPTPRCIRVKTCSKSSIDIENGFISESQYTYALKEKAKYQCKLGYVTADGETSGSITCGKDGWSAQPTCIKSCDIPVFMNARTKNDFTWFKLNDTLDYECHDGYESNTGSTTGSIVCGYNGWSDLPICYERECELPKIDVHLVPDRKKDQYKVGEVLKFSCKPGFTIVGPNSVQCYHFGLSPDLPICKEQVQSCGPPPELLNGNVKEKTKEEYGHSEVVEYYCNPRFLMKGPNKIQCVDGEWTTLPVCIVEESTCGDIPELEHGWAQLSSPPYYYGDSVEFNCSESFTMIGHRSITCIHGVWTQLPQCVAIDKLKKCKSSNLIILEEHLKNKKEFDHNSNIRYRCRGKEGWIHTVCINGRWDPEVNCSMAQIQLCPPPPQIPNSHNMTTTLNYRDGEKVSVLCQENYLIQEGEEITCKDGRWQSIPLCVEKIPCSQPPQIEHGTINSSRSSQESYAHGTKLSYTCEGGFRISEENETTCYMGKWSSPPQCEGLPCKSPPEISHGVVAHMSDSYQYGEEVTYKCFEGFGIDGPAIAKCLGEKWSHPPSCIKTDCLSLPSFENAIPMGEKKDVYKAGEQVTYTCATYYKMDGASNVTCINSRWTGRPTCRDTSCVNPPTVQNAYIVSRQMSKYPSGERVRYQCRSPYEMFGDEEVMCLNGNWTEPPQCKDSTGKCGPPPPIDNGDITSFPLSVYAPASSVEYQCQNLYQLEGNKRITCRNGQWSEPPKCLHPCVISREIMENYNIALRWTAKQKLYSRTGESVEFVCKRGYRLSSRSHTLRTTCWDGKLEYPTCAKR

Binder	Step Yield of CFH at pH 3.5 (percentage elution)
CFH binding protein of SEQ ID NO: 20 (CID 209864) (designed binder, Coupled to Praesto Epoxy 85 resin) IAAKFDEAQQAAFYEILHLPNLTELQRNHFIQTLRDDPSVSLWVLGLAQLLNDSQAPKIAAKFDEAQQHAFYTILHLENLTEEQRNAFIQSLRDDPSVSLEVLGEAIKLNISQAPK	96%
CFH binding protein of SEQ ID NO: 5 (CID 209447) (designed binder, Coupled to Praesto Epoxy 85 resin) NAAEADDAQVSAAMEIIMLPNLTLEQAHSFIESLYRDPSVSKEVLGEAQKLNDSQAPK	91%
